Assay results reported in article doi:10.1101/2020.09.10.287607 (bioRxiv, 2020).

T1: recombinant human RSPO3 (Peprotech 120-44) (human, UniProt Q9BXY4 22-272)
T1 sequence (looked up): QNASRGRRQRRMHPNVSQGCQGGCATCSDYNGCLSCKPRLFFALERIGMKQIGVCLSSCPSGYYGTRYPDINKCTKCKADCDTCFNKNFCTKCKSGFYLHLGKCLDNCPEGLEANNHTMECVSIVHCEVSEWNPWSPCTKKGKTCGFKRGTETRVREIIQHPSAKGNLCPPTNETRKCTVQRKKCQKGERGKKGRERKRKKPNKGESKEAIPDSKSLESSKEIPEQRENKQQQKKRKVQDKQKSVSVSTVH


How the values were obtained:
Assay in all cases: in vitro binding assay
[1] = target: T2, recombinant human RSPO2 (Peprotech 120-43) (human, UniProt Q6UXX9 22-243)
T2 sequence (Q6UXX9 22-243): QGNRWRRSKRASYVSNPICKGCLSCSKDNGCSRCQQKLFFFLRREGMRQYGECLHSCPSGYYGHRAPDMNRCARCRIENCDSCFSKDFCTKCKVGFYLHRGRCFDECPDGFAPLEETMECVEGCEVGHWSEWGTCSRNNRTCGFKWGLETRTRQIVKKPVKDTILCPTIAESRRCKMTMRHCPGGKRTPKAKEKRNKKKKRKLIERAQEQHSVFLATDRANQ

[2] = target: T1, recombinant human RSPO3 (Peprotech …)
[3] = target: T2, recombinant human RSPO2 (Peprotech …); remark: listed apart in the source

Row | Binder | binding result [1] | binding result [2] | Kd [3]
1 | recombinant human ZNRF3 Fc Chimera protein (R&D systems 7994-RF) (Fc fusion, UniProt Q9ULT6 56-219, looked up) KETAFVEVVLFESSPSGDYTTYTTGLTGRFSRAGATLSAEGEIVQMHPLGLCNNNDEEDLYEYGWVGVVKLEQPELDPKPCLTVLGKAKRAVQRGATAVIFDVSENPEAIDQLNQGSEDPLKRPVVYVKGADAIKLMNIVNKQKVARARIQHRPPRQPTEYFDM | binds | binds | 
2 | BMPR1A^ECD-AP (domain or fragment, UniProt P36894 24-152, looked up) QNLDSMLHGTGMKSDSDQKKSENGVTLAPEDTLPFLKCYCSGHCPDDAINNTCITNGHCFAIIEEDDQGETTLASGCMKYEGSDFQCKDSPKAQLRRTIECCRTNLCNQYLQPTLPPVVIGPFFDGSIR |  |  | ~4.8 nM
